Measured values: US20230220381 (published 2023)

B1: NCL (ssDNA)
DNA: CGTCGAGGCCCCTTCTTCTTCGTCTTCTTCTTAGGATACACGTCACGCCTTTTTTTTT
B2: TBA1F (ssDNA)
DNA: CGTCGAGGCCCCTTCTTCTTCGTCTTCTTCTTAGGAGGTGGTGTGGTTGGTTTTACACGTCACGCCTTTTTTTTT
modifications: branched DNA-encoded construct: code strand with branching unit BU; aptamer branch …

Columns and labels:
Thrombin [1] = target: T1, Thrombin (Homo sapiens, UniProt P00734;P00734 P00734:328-363,P00734:364-622); test: FP; 20 mM Tris, 140 mM NaCl, 20 mM KCl, 1 mM CaCl2, 1 mM MgCl2, 0.1% Triton X, room temperature
Thrombin [2] = target: T1, Thrombin; test: FP; no binding observed with up to 2 uM thrombin

Row | Binder | Kd (Thrombin [1]) | binding result (Thrombin [2])
1 | GGTTGGTGTGGTTGG (ssDNA) [PC (positive control TBA 15mer)] | 10 nM | –
2 | GGTTGGTGTTGTTTG (ssDNA) [NCS] | – | no binding
3 | B1 | – | no binding
4 | B2 | 13 nM | –
